Measurements as given in patent US20240261333A1, “NOVEL TARGETS FOR ENHANCING ANTI-TUMOR IMMUNITY” (THE BROAD INSTITUTE, INC., priority 2021, published 2024).

How the values were obtained:
SRSF1 = SRSF1 (UniProt Q07955); assay: co-IP, IgG control, C-FLAG B3GNT2 cell lysate, mass spectrometry
RPL37A = RPL37A (UniProt P61513); assay: as above
SSRP1 = SSRP1 (UniProt Q08945); assay: as above
RPS8 = RPS8 (UniProt P62241); assay: as above
RPS2 = RPS2 (UniProt P15880); assay: as above
MTCH2 = MTCH2 (UniProt Q9Y6C9); assay: as above
RPL5 = RPL5 (UniProt P46777); assay: as above
RPS23 = RPS23 (UniProt P62266); assay: as above
RPL35 = RPL35 (UniProt P42766); assay: as above
EIF4G1 = EIF4G1 (UniProt Q04637); assay: as above
SRSF3 = SRSF3 (UniProt P84103); assay: as above
RPL3 = RPL3 (UniProt P39023); assay: as above
POF1B = POF1B (UniProt Q8WVV4); assay: as above
LIMA1 = LIMA1 (UniProt Q9UHB6); assay: as above
RPS18 = RPS18 (UniProt P62269); assay: as above
TMEM59 = TMEM59 (UniProt Q9BXS4); assay: as above
ARG1 = ARG1 (UniProt P05089); assay: as above
CFL1 = CFL1 (UniProt P23528); assay: as above
CDSN = CDSN (UniProt Q15517); assay: as above
TNKS1BP1 = TNKS1BP1 (UniProt Q9C0C2); assay: as above
RPL19 = RPL19 (UniProt P84098); assay: as above
PBXIP1 = PBXIP1 (UniProt Q96AQ6); assay: as above
MTDH = MTDH (UniProt Q86UE4); assay: as above
TXN = TXN (UniProt P10599); assay: as above
DNAJA2 = DNAJA2 (UniProt O60884); assay: as above
DDX20 = DDX20 (UniProt Q9UHI6); assay: as above
RPS13 = RPS13 (UniProt P62277); assay: as above
TAGLN = TAGLN (UniProt Q01995); assay: as above
PSMA7 = PSMA7 (UniProt O14818); assay: as above
HIST1H1E = HIST1H1E (UniProt P10412); assay: as above
RPS16 = RPS16 (UniProt P62249); assay: as above
RPL22 = RPL22 (UniProt P35268); assay: as above
NCCRP1 = NCCRP1 (UniProt Q6ZVX7); assay: as above
RPS27 (human) = RPS27 (human) (UniProt P42677); assay: co-IP with anti-FLAG, mass spectrometry; lysate of cells with N-FLAG B3GNT2
PSMD4 (human) = PSMD4 (human) (UniProt P55036); assay: as above
PIGR (human) = PIGR (human) (UniProt P01833); assay: as above
HSPD1 (human) = HSPD1 (human) (UniProt P10809); assay: as above
ARHGEF2 (human) = ARHGEF2 (human) (UniProt Q92974); assay: as above
ILF3 (human) = ILF3 (human) (UniProt Q12906); assay: as above
EPRS (human) = EPRS (human) (UniProt P07814); assay: as above

Chain of SRSF1 (Q07955 2-248 limits assumed): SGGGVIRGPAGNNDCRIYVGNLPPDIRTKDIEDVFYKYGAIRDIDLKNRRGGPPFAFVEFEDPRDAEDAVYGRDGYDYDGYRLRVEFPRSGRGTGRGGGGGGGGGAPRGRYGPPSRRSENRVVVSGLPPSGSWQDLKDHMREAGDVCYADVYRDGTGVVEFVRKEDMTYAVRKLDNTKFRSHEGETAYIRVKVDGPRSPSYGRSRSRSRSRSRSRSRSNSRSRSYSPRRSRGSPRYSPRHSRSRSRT
Chain of NCCRP1 (Q6ZVX7 whole entry): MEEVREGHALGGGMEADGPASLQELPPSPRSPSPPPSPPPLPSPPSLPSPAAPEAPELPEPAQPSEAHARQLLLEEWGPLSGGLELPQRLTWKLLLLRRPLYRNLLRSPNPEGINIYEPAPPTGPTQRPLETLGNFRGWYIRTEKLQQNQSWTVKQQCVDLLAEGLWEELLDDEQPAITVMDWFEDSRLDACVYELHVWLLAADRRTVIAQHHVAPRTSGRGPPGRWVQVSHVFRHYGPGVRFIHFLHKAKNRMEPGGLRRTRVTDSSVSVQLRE
Chain of TMEM59 (Q9BXS4 36-323 limits assumed): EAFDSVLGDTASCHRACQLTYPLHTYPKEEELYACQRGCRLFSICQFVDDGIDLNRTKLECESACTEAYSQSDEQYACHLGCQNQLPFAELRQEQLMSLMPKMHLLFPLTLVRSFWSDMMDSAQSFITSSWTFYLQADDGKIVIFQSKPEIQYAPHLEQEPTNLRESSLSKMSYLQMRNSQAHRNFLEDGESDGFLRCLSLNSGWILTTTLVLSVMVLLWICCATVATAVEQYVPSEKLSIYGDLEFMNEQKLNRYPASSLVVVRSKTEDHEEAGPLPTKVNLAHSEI
Chain of SSRP1 (Q08945 2-709 limits assumed): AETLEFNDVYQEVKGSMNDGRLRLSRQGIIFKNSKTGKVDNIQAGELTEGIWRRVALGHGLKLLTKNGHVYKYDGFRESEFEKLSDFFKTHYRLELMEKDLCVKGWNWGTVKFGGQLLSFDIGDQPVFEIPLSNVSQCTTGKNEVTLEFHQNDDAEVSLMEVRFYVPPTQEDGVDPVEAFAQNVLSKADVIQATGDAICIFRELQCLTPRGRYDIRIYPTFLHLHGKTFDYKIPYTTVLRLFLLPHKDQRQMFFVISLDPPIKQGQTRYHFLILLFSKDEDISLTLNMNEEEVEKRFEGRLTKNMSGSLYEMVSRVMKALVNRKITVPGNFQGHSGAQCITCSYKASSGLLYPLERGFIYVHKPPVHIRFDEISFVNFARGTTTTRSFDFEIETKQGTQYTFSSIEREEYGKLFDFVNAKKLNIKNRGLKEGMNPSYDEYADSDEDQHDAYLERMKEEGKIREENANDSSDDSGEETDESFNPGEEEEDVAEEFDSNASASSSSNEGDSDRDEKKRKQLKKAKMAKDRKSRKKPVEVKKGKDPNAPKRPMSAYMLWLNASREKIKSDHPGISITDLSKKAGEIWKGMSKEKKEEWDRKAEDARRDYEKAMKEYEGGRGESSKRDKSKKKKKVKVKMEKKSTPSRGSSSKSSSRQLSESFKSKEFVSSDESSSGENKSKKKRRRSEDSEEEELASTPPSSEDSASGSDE
Chain of HSPD1 (human) (P10809 27-573 limits assumed): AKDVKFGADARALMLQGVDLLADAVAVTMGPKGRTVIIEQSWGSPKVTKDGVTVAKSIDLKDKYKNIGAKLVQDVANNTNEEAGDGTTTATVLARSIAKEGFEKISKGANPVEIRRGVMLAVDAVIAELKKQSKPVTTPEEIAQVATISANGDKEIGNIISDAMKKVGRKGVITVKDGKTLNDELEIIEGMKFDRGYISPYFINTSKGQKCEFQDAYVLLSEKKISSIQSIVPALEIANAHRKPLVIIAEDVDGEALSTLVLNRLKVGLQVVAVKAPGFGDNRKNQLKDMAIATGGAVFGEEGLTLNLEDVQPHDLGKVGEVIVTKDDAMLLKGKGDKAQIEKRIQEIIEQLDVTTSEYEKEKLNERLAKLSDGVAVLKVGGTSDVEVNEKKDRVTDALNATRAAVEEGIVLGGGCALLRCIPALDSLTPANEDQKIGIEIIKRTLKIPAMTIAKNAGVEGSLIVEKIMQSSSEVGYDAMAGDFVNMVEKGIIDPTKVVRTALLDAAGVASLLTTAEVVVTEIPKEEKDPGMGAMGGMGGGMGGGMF
Chain of PIGR (human) (P01833 19-764 limits assumed): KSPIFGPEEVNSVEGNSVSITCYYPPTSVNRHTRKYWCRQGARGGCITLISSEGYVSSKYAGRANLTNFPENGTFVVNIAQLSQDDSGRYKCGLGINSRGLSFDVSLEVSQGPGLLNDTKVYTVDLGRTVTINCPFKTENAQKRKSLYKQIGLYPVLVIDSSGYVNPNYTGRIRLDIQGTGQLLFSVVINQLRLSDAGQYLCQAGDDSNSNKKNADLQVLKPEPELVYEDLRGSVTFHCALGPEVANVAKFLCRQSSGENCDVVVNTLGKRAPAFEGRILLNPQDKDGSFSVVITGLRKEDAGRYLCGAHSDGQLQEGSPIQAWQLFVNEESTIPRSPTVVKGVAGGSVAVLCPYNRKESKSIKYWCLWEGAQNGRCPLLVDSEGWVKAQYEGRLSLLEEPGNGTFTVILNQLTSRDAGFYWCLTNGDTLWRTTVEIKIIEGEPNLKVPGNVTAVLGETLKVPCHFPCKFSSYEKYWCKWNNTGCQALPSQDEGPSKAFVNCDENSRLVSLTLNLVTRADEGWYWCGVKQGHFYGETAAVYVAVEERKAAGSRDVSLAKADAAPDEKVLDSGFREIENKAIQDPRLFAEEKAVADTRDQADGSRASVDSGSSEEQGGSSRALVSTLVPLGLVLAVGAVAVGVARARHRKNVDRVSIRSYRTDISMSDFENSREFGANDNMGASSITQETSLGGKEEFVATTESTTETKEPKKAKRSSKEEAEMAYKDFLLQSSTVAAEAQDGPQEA
Chain of DNAJA2 (O60884 1-409 limits assumed): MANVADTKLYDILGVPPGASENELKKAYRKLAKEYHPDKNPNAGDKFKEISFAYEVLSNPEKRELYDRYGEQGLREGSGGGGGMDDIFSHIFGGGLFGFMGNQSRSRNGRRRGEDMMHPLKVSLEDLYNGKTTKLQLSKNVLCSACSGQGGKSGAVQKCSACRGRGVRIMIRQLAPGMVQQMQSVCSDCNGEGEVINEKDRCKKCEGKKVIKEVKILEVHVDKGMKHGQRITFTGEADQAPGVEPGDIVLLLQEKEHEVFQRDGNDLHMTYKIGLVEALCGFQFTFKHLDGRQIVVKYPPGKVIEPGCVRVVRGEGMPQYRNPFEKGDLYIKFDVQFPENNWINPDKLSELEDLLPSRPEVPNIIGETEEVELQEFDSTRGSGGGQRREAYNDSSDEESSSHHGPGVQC
Chain of POF1B (Q8WVV4 other isoform, or with tags, fused parts or gaps limits assumed): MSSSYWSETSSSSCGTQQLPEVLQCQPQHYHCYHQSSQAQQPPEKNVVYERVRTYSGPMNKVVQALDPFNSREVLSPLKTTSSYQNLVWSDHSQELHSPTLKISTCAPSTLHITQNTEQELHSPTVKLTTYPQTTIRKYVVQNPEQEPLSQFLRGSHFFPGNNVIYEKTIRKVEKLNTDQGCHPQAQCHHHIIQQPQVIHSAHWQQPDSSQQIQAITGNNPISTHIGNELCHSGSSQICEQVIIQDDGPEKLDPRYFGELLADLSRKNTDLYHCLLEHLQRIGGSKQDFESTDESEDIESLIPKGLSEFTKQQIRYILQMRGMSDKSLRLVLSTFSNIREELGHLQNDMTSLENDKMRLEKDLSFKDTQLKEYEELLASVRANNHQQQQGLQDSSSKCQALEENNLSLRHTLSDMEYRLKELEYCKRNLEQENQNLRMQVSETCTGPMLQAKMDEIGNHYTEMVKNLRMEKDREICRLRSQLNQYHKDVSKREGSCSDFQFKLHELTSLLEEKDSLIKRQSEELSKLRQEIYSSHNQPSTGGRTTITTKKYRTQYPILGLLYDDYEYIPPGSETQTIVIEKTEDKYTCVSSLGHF
Chain of LIMA1 (Q9UHB6 other isoform, or with tags, fused parts or gaps limits assumed): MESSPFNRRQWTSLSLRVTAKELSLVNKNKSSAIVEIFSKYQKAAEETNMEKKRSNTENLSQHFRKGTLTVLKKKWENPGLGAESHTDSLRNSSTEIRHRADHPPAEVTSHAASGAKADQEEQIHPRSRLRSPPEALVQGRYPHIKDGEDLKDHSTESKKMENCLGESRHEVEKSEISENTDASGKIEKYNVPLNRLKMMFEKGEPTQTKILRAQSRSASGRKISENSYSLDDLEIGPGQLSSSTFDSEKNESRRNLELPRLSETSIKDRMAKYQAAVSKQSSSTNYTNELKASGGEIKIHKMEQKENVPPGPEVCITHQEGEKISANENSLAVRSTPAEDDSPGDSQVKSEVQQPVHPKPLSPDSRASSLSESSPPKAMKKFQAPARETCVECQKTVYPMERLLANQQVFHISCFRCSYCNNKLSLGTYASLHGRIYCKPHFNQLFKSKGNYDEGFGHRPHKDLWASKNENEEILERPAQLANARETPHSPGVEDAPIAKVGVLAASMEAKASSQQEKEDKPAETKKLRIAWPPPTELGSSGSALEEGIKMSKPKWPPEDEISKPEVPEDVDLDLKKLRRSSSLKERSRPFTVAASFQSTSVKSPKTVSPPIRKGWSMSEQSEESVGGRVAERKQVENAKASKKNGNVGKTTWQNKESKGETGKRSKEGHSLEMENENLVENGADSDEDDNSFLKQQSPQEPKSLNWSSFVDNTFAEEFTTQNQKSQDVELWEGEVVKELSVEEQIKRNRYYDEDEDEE
Chain of SRSF3 (P84103 whole entry): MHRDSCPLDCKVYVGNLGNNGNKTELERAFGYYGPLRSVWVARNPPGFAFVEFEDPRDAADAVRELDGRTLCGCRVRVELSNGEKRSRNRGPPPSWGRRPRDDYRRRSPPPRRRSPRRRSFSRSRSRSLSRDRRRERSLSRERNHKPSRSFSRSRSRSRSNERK
Chain of HIST1H1E (P10412 2-219 limits assumed): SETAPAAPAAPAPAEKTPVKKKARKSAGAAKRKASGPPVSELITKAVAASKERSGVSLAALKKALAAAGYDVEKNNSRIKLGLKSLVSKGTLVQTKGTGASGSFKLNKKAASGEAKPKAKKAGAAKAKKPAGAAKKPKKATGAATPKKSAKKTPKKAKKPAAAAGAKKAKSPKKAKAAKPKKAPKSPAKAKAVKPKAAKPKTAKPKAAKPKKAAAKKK

IgG control (Millipore Sigma 12-371) (antibody)
co-IP mass spectrometry count (SRSF1): 3 | co-IP mass spectrometry count (RPL37A): 3 | co-IP mass spectrometry count (SSRP1): 0 | co-IP mass spectrometry count (RPS8): 6 | co-IP mass spectrometry count (RPS2): 12 | co-IP mass spectrometry count (MTCH2): 0 | co-IP mass spectrometry count (RPL5): 0 | co-IP mass spectrometry count (RPS23): 9 | co-IP mass spectrometry count (RPL35): 0 | co-IP mass spectrometry count (EIF4G1): 2 | co-IP mass spectrometry count (SRSF3): 3 | co-IP mass spectrometry count (RPL3): 5 | co-IP mass spectrometry count (POF1B): 0 | co-IP mass spectrometry count (LIMA1): 0 | co-IP mass spectrometry count (RPS18): 9 | co-IP mass spectrometry count (TMEM59): 0 | co-IP mass spectrometry count (ARG1): 4 | co-IP mass spectrometry count (CFL1): 3 | co-IP mass spectrometry count (CDSN): 0 | co-IP mass spectrometry count (TNKS1BP1): 2 | co-IP mass spectrometry count (RPL19): 2 | co-IP mass spectrometry count (PBXIP1): 0 | co-IP mass spectrometry count (MTDH): 0 | co-IP mass spectrometry count (TXN): 0 | co-IP mass spectrometry count (DNAJA2): 0 | co-IP mass spectrometry count (DDX20): 0 | co-IP mass spectrometry count (RPS13): 2 | co-IP mass spectrometry count (TAGLN): 0 | co-IP mass spectrometry count (PSMA7): 0 | co-IP mass spectrometry count (HIST1H1E): 0 | co-IP mass spectrometry count (RPS16): 8 | co-IP mass spectrometry count (RPL22): 0 | co-IP mass spectrometry count (NCCRP1): 0

N-terminal FLAG tagged B3GNT2 (from UniProt Q9NY97 1-397) (enzyme)
co-IP mass spectrometry count (RPS27 (human)): 2 | co-IP mass spectrometry count (PSMD4 (human)): 2 | co-IP mass spectrometry count (PIGR (human)): 2 | co-IP mass spectrometry count (HSPD1 (human)): 10 | co-IP mass spectrometry count (ARHGEF2 (human)): 0 | co-IP mass spectrometry count (ILF3 (human)): 2 | co-IP mass spectrometry count (EPRS (human)): 3
